The values that follow come from patent US20040110933A1.

Test [1] concerns the target biotinylated CD44Fc (human) (UniProt P16070). As to the kind of experiment: phage ELISA on b-CD44Fc, no competitor.
Test [2] has the same target. As to the kind of experiment: competition phage ELISA on b-CD44Fc, competitor S5 (450 ng) pre-incubated. Background: ELISA stands for enzyme-linked immunosorbent assay.

B1: BE-A11 (Fab displayed on phage) (Fab, V domains shown)
VH: EVQLLESGGGLVQPGGSLRLSCAASGFTFSKYSMEWVRQAPGKGLEWVSRIYPSGGPTLYADSVKGRFTISRDNSKNTLYLQMNSLRAEDTAVYYCARDSYGMDVWGQGTTVTVSS
VL: QSVLTQPASVSGSPGQSITISCTGTSSDVGGYSYVSWYQQHPGKAPKLMIYEVSNRPSGVSNRFSGSKSGNTASLTISGLQAEDEADYYCNSYTSSSTKMFGGGTRLTVL
B1 yielded a phage ELISA signal (column CD44) in test [1] of 1.08. In addition, the phage ELISA signal (column CD44 + S5) in test [2] worked out at 0.261.
